This is an account of results in PMC11967795 (Advanced Science, 2025).

The target in assay [1] is recombinant RhuH protein (R. anatipestifer haem uptake protein haemophore), mature, without signal peptide (Riemerella anatipestifer CH-1). In words: SEC; purified recombinant apo RhuH on size exclusion chromatography; elution compared with the 35 kDa of the sequence.
The target of assay [2] is T1, RhuA (rRhuA; R. anatipestifer haemin uptake protein A) (Riemerella anatipestifer, UniProt J9QZE1).
T1 construct: gene B739_1417; recombinant
T1 sequence (J9QZE1 17-210): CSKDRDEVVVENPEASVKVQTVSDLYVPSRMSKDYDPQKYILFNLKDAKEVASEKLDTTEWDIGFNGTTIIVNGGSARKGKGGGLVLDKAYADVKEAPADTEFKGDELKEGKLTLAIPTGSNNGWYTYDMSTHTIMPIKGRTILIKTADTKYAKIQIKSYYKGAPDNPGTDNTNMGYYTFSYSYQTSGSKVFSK
As to the kind of experiment: SDS-PAGE and ECL detection of bound haemin. It counts as binding. The following applies: positive control.

Consider “recombinant RhuH protein (R. anatipestifer haem uptake protein haemophore), mature, without signal peptide (natural protein)”, for which, in assay [1], the stoichiometry N came to 2.

For `C=CC1=C(C)C2=Cc3c(C=C)c(C)c4[n]3[Fe]([Cl])[n]3c(c(C)c(CCC(=O)O)c3=CC3=NC(=C4)C(C)=C3CCC(=O)O)=CC1=N2` [haemin], the “SDS-PAGE and ECL detection of bound haemin” value in assay [2] was “haemin signal was detected in the haem binding protein rRhuA (positive control) incubated with haemin”.
